Four molecules from paper PMC4962041, “Human DNA-Damage-Inducible 2 Protein Is Structurally and Functionally Distinct from Its Yeast Ortholog” (Scientific Reports, 2016) can be followed below.

No end group written: not given here.

Series [1] concerns the molecule itself. The experiment in a line: SAXS; His-tagged HDD-RVP at 5 and 2.5 mg/ml in 25 mM Tris/HCl, 75 mM NaCl, 5% glycerol, 1 mM DTT, pH 7.4; molecular mass from the invariant Vc.
Series [2] has as its target T1, human ubiquitin (human, UniProt P0CG48 1-76).
T1 construct: human ubiquitin, the cut product of the ubiquitin precursors; shifts were mapped on PDB 1D3Z; also called UBQ; mono-UBQ; source: 15N- or 15N/13C-labelled where observed by NMR
As to the kind of experiment: NMR titration; 15N-labelled hDdi2 UBL (0.05 mM) with a 1- to 10-fold molar excess of UBQ; 50 mM sodium phosphate, pH 7.4, 25 °C; 1:1 model for the Kd. To be noted: both partners purified.

Series [3] concerns the molecule itself. The experiment in a line: crystal structure; hDdi2 RVP (212-360), 1.9 Å, PDB 4RGH; hanging drop, 0.2 M ammonium acetate, 0.1 M Bis-Tris pH 5.5, 25% PEG 3350.
The target in series [4] is T1, human ubiquitin. The experiment in a line: NMR titration; 15N-labelled UBQ (0.1 mM) with unlabelled peptide; 15N/1H-HSQC chemical shift perturbation; 50 mM sodium phosphate, pH 6.0 and pH 7.4, 25 °C; 1:1 model for the Kd. To be noted: both partners purified.

B1: hDdi2 HDD-RVP (residues 116-360) (domain or fragment, human, UniProt Q5TDH0 116-360, looked up)
chain: QQSHSSPGEITSSPQGLDNPALLRDMLLANPHELSLLKERNPPLAEALLSGDLEKFSRVLVEQQQDRARREQERIRLFSADPFDLEAQAKIEEDIRQQNIEENMTIAMEEAPESFGQVVMLYINCKVNGHPVKAFVDSGAQMTIMSQACAERCNIMRLVDRRWAGIAKGVGTQKIIGRVHLAQVQIEGDFLPCSFSILEEQPMDMLLGLDMLKRHQCSIDLKKNVLVIGTTGSQTTFLPEGELPE
notes: human DNA-damage-inducible 2 protein (Ddi homolog 2, 399 amino acids), residues 116-360 (lacking both UBL and UIM); Called His-tagged for the SAXS experiment; dimer by SAXS; not shown: His tag, N-terminal, kept
The stoichiometry N is the number of molecules, sites or subunits per partner or assembly. For B1, the “stoichiometry N” value in series [1] turned out to be 2.

B2: hDdi2 UBL domain (residues 1-76) (domain or fragment, human, UniProt Q5TDH0 1-76, looked up)
chain: MLLTVYCVRRDLSEVTFSLQVDADFELHNFRALCELESGIPAAESQIVYAERPLTDNHRSLASYGLKDGDVVILRQ
notes: human DNA-damage-inducible 2 protein (Ddi homolog 2, 399 amino acids), residues 1-76: ubiquitin-like domain; also called N-terminal UBL domain of hDdi2; not shown: His tag, N-terminal, kept
As usually defined, the Kd is the constant that tells how readily two partners part at equilibrium. As to B2, the Kd in the series with human ubiquitin [2] fell in the range of 420 to 1100 µM.

B3: hDdi2 RVP domain (residues 212-360) (domain or fragment)
chain: not shown
notes: Gln232 to Pro359 visible in the structure
With B3, the binding result in series [3] is recorded as “binds”.

B4: hDdi2-UIM peptide (peptide)
peptide: EEIADQELAEALQKSAEDAE-NH2
notes: Dissolved in DMSO before use; also called C-terminal hDdi2 UIM peptide; source: synthetic peptide (solid phase, HPLC purified)
B4: in the series with human ubiquitin [4], the Kd lay within 2200 to 3200 µM.
